The text below walks through data of the DeepSol protein solubility set.

A short description of the series: soluble on expression in E. coli; label from the status in PepcDB or PDB records.
Consider “EQALSDQLRFVEALTDCMPPPLYVRDVNGRMLSCNRSYLQSVGLSSEEVMNRTVLELPMENFETAPEFHRSYLMAMREGRTIEAVYPVALGGRERWIDHWIQPFRDSSGTIRGVICGWLDITEHRQLIDELEEAKNLADEASRAKTTFLATMSHEIRTPMNAVIGILELALKRAETGRVDRSSIEIAYASAKSLLELIGDILDIARIESGRLSLSPKRANLRELVESVARVFEGLARQKRLSLVLEIDSSINGDVLLDAMRFKQILSNLVSNAIKFTDEGSIRIRIDGRQVEPSLLQVNLCVEDTGIGISLGDQQQLFRPFAQVNRNLQNTEGTGLGLVISRSLCEMMGGRLVMSSELGQGTRIDVELRLQVLEPIVENVRAIPLGSRQARRLQVLVVDDHAVNRQILHQQLSFLGHDVEEAENGLSALNLWHGQPFDMVITDCHMPLMSGSDLARSIRQEERENGEEPVVIIGLTADAQPEEIERCIQAGMNECLIKPIGLDVLEERLLALGFAADELPVTIDAEPVAIPTAPRLYDLDSLHALTGGEPTMLRRLLDELLTSNRKDLETLEGLVQRQETGELAELAHRIKGAARVVRGEQLVESCRRLEDACLSPNASFAWVEECAVGVKLAILALDESLVEEC”, for which the “soluble on expression in E. coli” value is on record as “not soluble”.
In the case of “MGAFFMSVVSAFAGAAEACRPTGALQNVEVARVVDGDTVRLRDGRSVRLIGINAPELAHNGRTTEPFAEAAKQRLQALVSASDGRLALQPGRQARDHYGRTLAHLFDASGANLEARLLGEGLGYLVAVAPNTELTACQQAAERAARSANLGVWKRSPVLSLDRLAQSGFAVVRGRVLEVERNRGGIWLEMDGPLVLRIEPKVLKAFDAKRVMQMAGRSLEVRGWVVDRSRRGAVPAGKARWQMSVTDPAMLEWLPLEHHHHHH”, the “soluble on expression in E. coli” value is “not soluble”.
The same measure for “MSLGNSFRQGANAYFDYVNTQGGIYGRALELLTYDDKYEPKLTESNVRHLIDKEGVFALMGTIGTPTAMAAIPVALEEQIPFLMPLSGARFLREPFNRLIFNLRPSYFEEIEAISSYLTEERGFKRIAIFYQNDSFGIEGLEGLTQSLDKRGLKIVAEGIYPRNTLSVSDAVYAIHPKSPEAIVMVGTYEASALFIQRYKELNPASPPLFVNISFVAATALAEALQGNMRQVLVSNVTPSPWDISNPLVREYHRLYVESMGHPPCFLSFEGFLSAKIIVEALHKTGPILSHKRFIKAMENLSPDFLSDLKLRFSATNHQAFEQVFITGYENGRFVTLKSYEGHHHHHH”: “not soluble”; for “QDFPQSLIIDSFLVNDGKTRGLNLHLDRFRTACLEHGYAHHEQLDAFFAEALRSIPATGQWFPRLEATPTELRIALRPAPQLRGTTTLTSVAAVRPTPKYKGLDLDYLAELRCSSTTDDALLVTPAGVIAETTTAAIIAWDGTKWMSMAPARLESVTESLLINSARAQGEMVVTAALTVPEAQKLNLWAVNSLHGVTPVTHIDEVALPSNPQRSALLRGWLSQSEENIAQV”: “not soluble”; for “MSVDTKIIGSFLQLTNYFAENYPAPCDLISSLTDLWFKQGGMIARMMSCDIQEFKSSDVFYEVLYRKIRVGNSLLADTLDPKMAAEGNLFEICKFYSLYLEHLRKDQSELLTIVLERLASQSDFNSTVILDMFTFFDKLYSEGNVGDWWDFLLGSEDASMVFKTPKKTNRPSNAFSTPTATAKRLPMYGSSTCRSPIAEVVDSPTMKYMRSDRELKTAKKKLVDMEHMVDELESENRNLTEKGRELKLIIDSLKSDVTNKRDTAKSSQQREQELSNILEEKEKESAQLLQQLEESRAALRDEQRHLEHQEAENGKIVEQLKTVSELNEKLTMQVKDLQDASENELASFRQKEKELIDELRMATNENVDLEELLKGVTNGKAGLQFENNCLVGKLEELSFVSDRNKQDADNARAQLEEEREKHRLATEKLHQENIDYMKTSDSRIEMILEESKTRKMMDESTIERLRLDLDNEKSYKKNLEDLLNDLNQRALNSEMANHLQKEGIQSVETYLQMAKKRIEHLELELSATNATIEFQSQQLDRAGNMLITEQEIRNQTSVQYKERTSALENQLSQKDAEIENLKRDLQQLVTKHESELKEQHEQLNVHHQSQQKLHSEAEKLRREHEALGKKNCFLGERCKIFVKDSRSGVMKRSTSSDSLAEFLSKGNDNETLEEMMRLIAQTPRKSVAFSFDLDEDETLKGTPIGFRTNLNETRESIASDEFFDRFPSTFPTRAAPRESVVSIGEPKNQFSPLGTSKDRVKTLTSRNEKVKPHLKSSYATEMGNVTSPSADEENVRKGKSKSIFAKLKGPRRDSFFFGKKKQAE”: “not soluble”.
The same measure for “GPGSMGRASKDKRDIYYRKAKEEGYRARSAYKLLQIHEEFNILDPAEIRTGAVDLCAAPGSWSQVLAQHFKMISANLTAASEGDSLPAQTPRVVAVDLQEMAPIDGVTLLQGDITSEVTAREIIRLLNAPTSTGVVRTDDEQQQPQPASSSFSSSAPSPALGASPRKADIVLCDGAPDVTGMHELDEYLQHHLLLAALHITTFVLRAGGCFLTKIFRGPNTAFLVAKSQLFFQQVRVVKPKSSRNASMESFLLCQGFRMPLGYVPRFVGAAAPAAASSATTGCSRGAASASAGCGSRVEADNEEGVKGERSETAIGSGGPLRASGFTPEAPLYCYDTTASFSHASDGGAAAAATVHDVAHHNQRTSCTLADGVLAPFLSCGDLSGFDADMCYDRDEDADVLEPVQPPLQAPYLAAAAASPSQLAGVADGRDTEADASQKKKIRVESPTAIAGRDSSTGGEEQQ”: “not soluble”.
The same measure for “MGSDKIHHHHHHMQPEFNRPEFLEGNSAEEIHERMMNNLPDDIDDMPGGFPYDMTMPAALEKDEIINFHIVRALMIAFPEYAWDEWLDLHGRQVHLTRHEAEPAFGYVKITAAEGTEILSGTVFCTAATETGPSIEYATTEDVVVGGEGSVLIPVSAVEAGTGSNVAANTVVLMMVPDKNVTEINNPEPIRGGTERETDDDFYDRIAAEYDNSMTYLGNDTDYKRWAKQAGAGDAIVISTWNGPGTVKLVLVDGNGKPANAKLVQDVYNYIVSPNDRSARLLPTGTAELTCAAATTVAVNYVIAGLSYDETTGIEQIKADFTEAVRAVYAQAKTEGVLRYNDVRPLISAIAGVEDFETFTMNGKMQNITLKSEEYPDTGTLNFS”: “not soluble”; for “DIHRQAYAAMLHSSQSSLGTALKFFHAQSVIDNAYDQEHVHYIDRQVKTRKGMPEASADSIRALLEIDLPARGYSKIDVPCKGSDFCIIGQQHPNSAHFVAIPDYQFLDKSGFDRVVYIWPQGYTLAEEACYFYYVNQASTDSIVRGHVTQGC”: “not soluble”.
As for “MGHHHHHHSHMAVVRATSADVDLMARLLRAEAEGEGKQGMLLVGNVGINRLRANCSDFKGLRTIRQMIYQPHAFEAVTHGYFYQRARDSERALARGSINGERRWPAKFSLWYFRPQGDCPAQWYNQPFVARFKSHCFYQPTAETCENVYNTF”, the “soluble on expression in E. coli” value was “not soluble”.
The same measure for “MAHHHHHHMLTDNQNCLEMERSDKRVTVALINTRSGERTAAEFVRKQMETHLGEENVFYLFPSGKPAIAEAKKFLERHNPAVVIVAGGDGTVSLALDITDGLRRTNMLSATSAYVAVLPMGTGNDLSRTLGFGGGYVKPLLNPEKKFKRLLDRLAHAKGIKMDRWSVQIQKKSTLTVASTGEDAHAGDSSRTYGVDDVHVVEKTMMNYFSIGFDATIVRQFNDFRNDHPTMCSQRSLNKLWYGCFGCGSMCNSVALPRKQMKLTVDDKCVAIPPGTKALLVTNVKTYAGGAVLWKDNRCRFAKPDVGDGLLEVTALYGVWHFAGVRMGIRKAMKVAQGNCIRIETPAYFAMQLDGEPVDELACGEEMIDVSITFFSRTLVMTCEGS”: “not soluble”; for “MDDVYRAFDSVGNILNFRIVEKEQKGFWVSTKIKTVVFDSADMSSDDLFLKCLQSSYKAYFETEPAGLDKRQLMKTLIQKCGFSC”: “not soluble”.
As to “MSLKILITGSNGLLGQKLVSLLYLKPEITLIATARGANRDEIYEDYIYESMDITSEENVLKVFRKHKPDAVIHTAAMTHVDQCELNKEACVDQNITSVKHIVKACKEVGAFLLHVSTDFIFDGTRGPLTEEEIPNPVNYYGWTKWEAEKAVENSGLKWAIARTVLVFGVVQDMSRSNIVLWVKNNLEQKKEINVVNDQWRTPTLAEDLAMGCWLIVKNQAEGIFNISGEEMLSPYELAHKVADVWKLDKGLIKQADSSTFTQPALRPPKTGFIIDKAKKQLGYKPHTLEEGLDLLKEQLTEGHHHHHH”, the “soluble on expression in E. coli” value was “soluble”.
For “MNKKILIIDDNKMLGKLLAKKIQMTLDYEVDIAFGFAEAKELMNNDYFLAFVDLCLPDAPNGEVVDYVIEKKIPAIVLTASGDKATKEKFMDKDILDYIFKESETCIDEIISSIVKLNQYAKTKVIVAMSKLPERNEIKKILTQRQFNVLAAAHGEEAMSYLNDNNDVKLIIADVNMPVISGFELLTQVRERFSDDELGVILLGDHNDSFEANSFKNGVNEYLFKPLSKESFNCRLDRCLSYMDDKKFLSTYNVLDPVSGVKNYNALIDGIDDYFNEIATKDEEFAFAFLDIDNLQMINDEYGREVGDEVIKICANEIVNETKGRDLVGRYSAEKICILLKNISQERAIKIFSRIRVNIKKAGVLVNLDEVFFTASIGVVFGKSGDKIDSLADKASKILSQAKDNGKDRVEVCS” the value was “soluble”.
The same measure for “MGSDKIHHHHHHMESEIKTRGFAIDVSRDKLTVAKAELVITQEKREVEVNEVREFKYDNEGIEELIKFLGEYKEGIMESTGPYFFYLHEELTEKGYKVTLINPLHLKEVFGKKTDKLDAQRLAKAFILGAVKGSYIPTGEIRELRELTRYRESLMRKITQVKNEIRKFLEMAGYKIEPFDKRGMALLEKLSRGEGLSKEERDELKEKLGRSLNDAEKLALKQLVDLLKSLEAMVKEVEDMIISKIPQPVVELSRELV”: “not soluble”; for “MGHHHHHHSHMETLSNASGTFAIRLLKILCQDNPSHNVFCSPVSISSALAMVLLGAKGNTATQMAQALSLNTEEDIHRAFQSLLTEVNKAGTQYLLRTANRLFGEKTCQFLSTFKESCLQFYHAELKELSFIRAAEESRKHINTWVSKKTEGKIEELLPGSSIDAETRLVLVNAIYFKGKWNEPFDETYTREMPFKINQEEQRPVQMMYQEATFKLAHVGEVRAQLLELPYARKELSLLVLLPDDGVELSTVEKSLTFEKLTAWTKPDCMKSTEVEVLLPKFKLQEDYDMESVLRHLGIVDAFQQGKADLSAMSAERDLCLSKFVHKSFVEVNEEGTEAAAASSCFVVAECCMESGPRFCADHPFLFFIRHNRANSILFCGRFSSP”: “not soluble”.
For “MASTKDEVVRMSVDEYWEDIKDDYLIQLANTDPNEVYPSNNPGPTTADGQINFECHCVGHLVGSPCGFEFREAITCQKTNSDGEIEQGACGKELMSFMECVTRTQCFGTGDNDKK” the value was “not soluble”; for “QELPTDLSEVFVDFSKEPLASGSVAQTHRARLLSGQEVIIKIQRPGIDDIVKEDIQLLIKLARHIPKHFISMVDVQEVLENLCETLIKELDFKNEAEAMKRFRANNKRVVCLGVPEVY”, “not soluble”; for “MAHHHHHHMKPSQPSYDKRAYQTIYPQYLDAELTPHDGRRLTRTQAVDDPTTNEVVEALKELGYTDIFVEPSASFPRSQGSIKYIMPPKGCVKVAIKRPKGEHYIPKSDFDTQTRGVTVEDIPNKMELLRRVSALIKIQHALKKQAEAAAASQTANTRKK”, “soluble”.
Take “MSEHVFETEQVYPALGKVEIAPEVIEVIAGIAASEVDGIAQMRGNFAAGVAERFGKKHHGKGVKVDLRDDGVVIDLYCLVQFGASIPNVAKKVQENVRQALWNMTGLEASEVNVHIVGIQFEGGKQEQGVVEQ”: the “soluble on expression in E. coli” value is given as “not soluble”.
For “MLKSIILLICAHCAFSDRLDAGSQADCVAAANKIYNNEWGFDHKLVYDKELEPFAAETPCGIAYLQNGLAEVGSGGAHTSVNLREEHTRIACVPKKCGGVEVACAVGGPSMALNLKRKIRKLRQIRCLRTFGATVTLKN” the value was “not soluble”.
